Test results: patent US20220402983A1 (Janssen / Centocor, published 2022)
Bridges are numbered along the chain shown (N, C = ends). Where no end group is shown, it is not given here. [ ]: non-standard residue; d: D form. Trp(7-Me) = Cc1cccc2c(C[C@H](N)C(=O)O)c[nH]c12; 2Nal = N[C@@H](Cc1ccc2ccccc2c1)C(=O)O; AEF = NCCOc1ccc(C[C@H](N)C(=O)O)cc1; αMeF = C[C@](N)(Cc1ccccc1)C(=O)O; Pen = CC(C)(S)[C@H](N)C(=O)O; αMeK = C[C@](N)(CCCCN)C(=O)O; Ac5c = NC1(C(=O)O)CCCC1; Thp = NC1(C(=O)O)CCOCC1; Abu = CC[C@H](N)C(=O)O

T1: human IL-23R (interleukin-23 receptor) (human, UniProt Q5VWK5 24-629)
T1 sequence (looked up): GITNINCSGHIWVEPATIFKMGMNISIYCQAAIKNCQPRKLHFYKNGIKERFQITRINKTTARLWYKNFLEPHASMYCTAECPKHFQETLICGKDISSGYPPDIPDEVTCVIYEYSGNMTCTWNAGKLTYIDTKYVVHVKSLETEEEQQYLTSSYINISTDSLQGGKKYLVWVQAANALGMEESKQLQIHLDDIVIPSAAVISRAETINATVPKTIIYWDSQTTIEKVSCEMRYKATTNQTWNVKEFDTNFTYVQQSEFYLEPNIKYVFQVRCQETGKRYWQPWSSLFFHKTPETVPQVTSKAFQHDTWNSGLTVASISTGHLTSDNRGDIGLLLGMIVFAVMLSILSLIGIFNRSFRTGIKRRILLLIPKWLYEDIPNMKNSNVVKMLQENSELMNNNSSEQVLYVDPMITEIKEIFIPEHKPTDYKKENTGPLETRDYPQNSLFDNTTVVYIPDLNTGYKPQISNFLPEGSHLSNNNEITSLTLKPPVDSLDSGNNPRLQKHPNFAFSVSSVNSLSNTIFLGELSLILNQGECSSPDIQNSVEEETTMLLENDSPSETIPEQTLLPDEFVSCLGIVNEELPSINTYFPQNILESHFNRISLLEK

B1: Compound No. 84 (peptide)
peptide: Ac-[Pen]QTWK(Ac)[Pen][AEF][2Nal][αMeK]K(Ac)N[Thp]-NH2
modifications: disulfide 1-6
SMILES: CC(=O)NCCCC[C@@H]1NC(=O)[C@H](Cc2c[nH]c3ccccc23)NC(=O)[C@H]([C@@H](C)O)NC(=O)[C@H](CCC(N)=O)NC(=O)[C@@H](NC(C)=O)C(C)(C)SSC(C)(C)[C@@H](C(=O)N[C@@H](Cc2ccc(OCCN)cc2)C(=O)N[C@@H](Cc2ccc3ccccc3c2)C(=O)N[C@@](C)(CCCCN)C(=O)N[C@@H](CCCCNC(C)=O)C(=O)N[C@@H](CC(N)=O)C(=O)NC2(C(N)=O)CCOCC2)NC1=O
B2: Compound No. 85 (peptide)
peptide: [dR][Abu]QTWQC[AEF][2Nal][Thp]EN[αMeF]-NH2
modifications: thioether 2-7; not fully specified (N-terminus); printed as pr-[(D)Arg]-[Abu]-Q-T-W-Q-[Cys]-Phe[4-(2-aminoethoxy)]-[2-Nal]-[THP]-E-N-[a-MePhe]-NH2
B3: Compound No. 87 (peptide)
peptide: XNTXQXFXKKNX
modifications: Ac-[Pen]-N-T-[W(7-Me)]-Q-[Pen]-Phe[4-(2-aminoethoxy)]-[2-Nal]-[a-MeLys]-[Lys(Ac)]-N-[THP]-NH2; cyclized: Pen-Pen disulfide bond
B4: Compound No. 88 (peptide)
peptide: Ac-[dR][Pen]NTWK(Ac)[Pen][AEF][2Nal][Ac5c]EN[Thp]-NH2
modifications: disulfide 2-7
SMILES: CC(=O)NCCCC[C@@H]1NC(=O)[C@H](Cc2c[nH]c3ccccc23)NC(=O)[C@H]([C@@H](C)O)NC(=O)[C@H](CC(N)=O)NC(=O)[C@@H](NC(=O)[C@@H](CCCNC(=N)N)NC(C)=O)C(C)(C)SSC(C)(C)[C@@H](C(=O)N[C@@H](Cc2ccc(OCCN)cc2)C(=O)N[C@@H](Cc2ccc3ccccc3c2)C(=O)NC2(C(=O)N[C@@H](CCC(=O)O)C(=O)N[C@@H](CC(N)=O)C(=O)NC3(C(N)=O)CCOCC3)CCCC2)NC1=O
B5: Compound No. 89 (peptide)
peptide: XNTXQXFXKKNF
modifications: Ac-[Pen]-N-T-[W(7-Me)]-Q-[Pen]-Phe[4-(2-aminoethoxy)]-[2-Nal]-[a-MeLys]-[Lys(Ac)]-N-[a-MePhe]-NH2; cyclized: Pen-Pen disulfide bond
B6: Compound No. 90 (peptide)
peptide: Ac-[dR][Pen]NT[Trp(7-Me)]Q[Pen][AEF][2Nal][Thp]EN[Thp]-NH2
modifications: disulfide 2-7
SMILES: CC(=O)N[C@H](CCCNC(=N)N)C(=O)N[C@@H]1C(=O)N[C@@H](CC(N)=O)C(=O)N[C@@H]([C@@H](C)O)C(=O)N[C@@H](Cc2c[nH]c3c(C)cccc23)C(=O)N[C@@H](CCC(N)=O)C(=O)N[C@H](C(=O)N[C@@H](Cc2ccc(OCCN)cc2)C(=O)N[C@@H](Cc2ccc3ccccc3c2)C(=O)NC2(C(=O)N[C@@H](CCC(=O)O)C(=O)N[C@@H](CC(N)=O)C(=O)NC3(C(N)=O)CCOCC3)CCOCC2)C(C)(C)SSC1(C)C
B7: Compound No. 91 (peptide)
peptide: Ac-[dR][Pen]NT[Trp(7-Me)]Q[Pen][AEF][2Nal][Thp]EN[αMeF]-NH2
modifications: disulfide 2-7
SMILES: CC(=O)N[C@H](CCCNC(=N)N)C(=O)N[C@@H]1C(=O)N[C@@H](CC(N)=O)C(=O)N[C@@H]([C@@H](C)O)C(=O)N[C@@H](Cc2c[nH]c3c(C)cccc23)C(=O)N[C@@H](CCC(N)=O)C(=O)N[C@H](C(=O)N[C@@H](Cc2ccc(OCCN)cc2)C(=O)N[C@@H](Cc2ccc3ccccc3c2)C(=O)NC2(C(=O)N[C@@H](CCC(=O)O)C(=O)N[C@@H](CC(N)=O)C(=O)N[C@@](C)(Cc3ccccc3)C(N)=O)CCOCC2)C(C)(C)SSC1(C)C

Biological target: T1, human IL-23R (interleukin-23 receptor)
Test: cell-based or functional assay

| Binder | PBMC pSTAT3 IC50 (nM) |
| --- | --- |
| B1 | 54 |
| B2 | 7.6 |
| B3 | 3.6 |
| B4 | 3.7 |
| B5 | 12 |
| B6 | 3.7 |
| B7 | 4.1 |
